Measurements taken from paper doi:10.1101/060434 (bioRxiv, 2016).

Target: the molecule itself
Assay: electron microscopy

B1: hepatitis E virus-like particle (HEV-LP) of the HEV ORF2 capsid protein, amino acids 368-606 (p239) (domain or fragment, UniProt P33426 368-606, looked up)
chain: IALTLFNLADTLLGGLPTELISSAGGQLFYSRPVVSANGEPTVKLYTSVENAQQDKGIAIPHDIDLGESRVVIQDYDNQHEQDRPTPSPAPSRPFSVLRANDVLWLSLTAAEYDQSTYGSSTGPVYVSDSVTLVNVATGAQAVARSLDWTKVTLDGRPLSTIQQYSKTFFVLPLRGKLSFWEAGTTKAGYPYNYNTTASDQLLVENAAGHRVAISTYTTSLGAGPVSISAVAVLAPHSV
B1: binds.
